In assay [1] the target is Factor VIII in a pool of normal human plasma (human), P00451. Put plainly: cell-based or functional assay.
For assay [2], the target named is human recombinant Factor VIII (human) (UniProt P00451). Put plainly: SPR (BIAcore), antibody immobilised on CM5 chip, Factor VIII as analyte. In general terms: Surface plasmon resonance follows binding to a sensor surface in real time, without labels.

What is called Kd is a measure of binding affinity in units of concentration.

B1: RHD5 human monoclonal antibody produced by the RHD5 cell line (LMBP 6165CB) (antibody, IgG1, V domains shown)
VH: QVQLVQSGAEVKKPGSSVMVSCKASGGTFSSFGISWVRQAPGQGLEWVGGIIPIFGTANTARNFQNRVTITADEFTSTAYIRLRSLRSEDTAVYYCVGGRDAYSFDGFDVWGQGTMVTVSSASTKGPSVFP
VL: SSGLTQPHSVSVSPGQTANITCSRDKLGHKFASWYQQKPGQSPALLIYQDSKRPSGIPERFSGSNSGNTATLTISGTQAMDEADYYCQAWDNTTAVFGGGTKLTVLSQPKAAPSVTLFPPS
As for B1, in assay [1], the inhibition of Factor VIII activity, Bethesda assay with plasma was 97%; the inhibition of Factor VIII activity, chromogenic assay, mAb-RHD5 at 10 µg/ml before mixing was found to be 80%; the residual Factor VIII level, Bethesda assay with plasma was found to be 7 ng/mL.

B2: CHO-recKRIX-1 (recombinant KRIX-1 produced in CHO cells) (antibody, V domains shown)
VH: QVQLVQSGAEVKKPGASVKVSCKTSGYNFTGYSASGHIFTAYSVHWVRQAPGQGLEWMGRINPNSGATDYAHKFQGRVTMSRDTSISTAYMELSRLTSDDTAMYYCARADNYFDIVTGYTSHYFDYWGRGTLVTVSS
VL: EIVLTQSPGTLSLSPGERATLSCRASQSVASAYLAWYQQKPGQAPRLLIYGASSRATDIPHRFSGSGSGTDFTLTISRLEPEDFAVYYCQQYGTSALLTFGGGTKVEIKR
B2: in assay [2], the Kd came to 0.14 nM.

B3: CHO-recKRIX-1A (KRIX-1 with heavy chain Thr49 changed to Ala49, produced in CHO cells) (antibody, IgG4, V domains shown)
VH: QVQLVQSGAEVKKPGASVKVSCKTSGYNFAGYSASGHIFTAYSVHWVRQAPGQGLEWMGRINPNSGATDYAHKFQGRVTMSRDTSISTAYMELSRLTSDDTAMYYCARADNYFDIVTGYTSHYFDYWGRGTLVTVSS
VL: EIVLTQSPGTLSLSPGERATLSCRASQSVASAYLAWYQQKPGQAPRLLIYGASSRATDIPHRFSGSGSGTDFTLTISRLEPEDFAVYYCQQYGTSALLTFGGGTKVEIKR
For the molecule B3, the Kd in assay [2] came to 0.13 nM.

B4: CHO-recKRIX-1Q (KRIX-1 with heavy chain Asn47 changed to Gln47, produced in CHO cells) (antibody, IgG4, V domains shown)
VH: QVQLVQSGAEVKKPGASVKVSCKTSGYQFTGYSASGHIFTAYSVHWVRQAPGQGLEWMGRINPNSGATDYAHKFQGRVTMSRDTSISTAYMELSRLTSDDTAMYYCARADNYFDIVTGYTSHYFDYWGRGTLVTVSS
VL: EIVLTQSPGTLSLSPGERATLSCRASQSVASAYLAWYQQKPGQAPRLLIYGASSRATDIPHRFSGSGSGTDFTLTISRLEPEDFAVYYCQQYGTSALLTFGGGTKVEIKR
Take B4: in assay [2], the Kd turned out to be 0.17 nM.

B5: deglycosylated KRIX-1 (KRIX-1 treated with N-glycosidase-F) (antibody, IgG4, V domains shown)
VH: QVQLVQSGAEVKKPGASVKVSCKTSGYNFTGYSASGHIFTAYSVHWVRQAPGQGLEWMGRINPNSGATDYAHKFQGRVTMSRDTSISTAYMELSRLTSDDTAMYYCARADNYFDIVTGYTSHYFDYWGRGTLVTVSSASTKGPSVF
VL: EIVLTQSPGTLSLSPGERATLSCRASQSVASAYLAWYQQKPGQAPRLLIYGASSRATDIPHRFSGSGSGTDFTLTISRLEPEDFAVYYCQQYGTSALLTFGGGTKVEIKRTVAAPSVFIFPPS
modifications: here or on the partner: N-glycans removed by N-glycosidase-F treatment (2 U/ml, 72 hours, 37 C)
For B5, in assay [1], the inhibition of Factor VIII activity, chromogenic assay was determined as 50% and the maximal (plateau) inhibition of Factor VIII activity, Bethesda assay with chromogenic readout turned out to be 50%.

B6: CHO-recKRIX-1 (recombinant KRIX-1 produced in CHO cells) (antibody, V domains shown)
VH: QVQLVQSGAEVKKPGASVKVSCKTSGYNFTGYSASGHIFTAYSVHWVRQAPGQGLEWMGRINPNSGATDYAHKFQGRVTMSRDTSISTAYMELSRLTSDDTAMYYCARADNYFDIVTGYTSHYFDYWGRGTLVTVSSASTKGPSVF
VL: EIVLTQSPGTLSLSPGERATLSCRASQSVASAYLAWYQQKPGQAPRLLIYGASSRATDIPHRFSGSGSGTDFTLTISRLEPEDFAVYYCQQYGTSALLTFGGGTKVEIKRTVAAPSVFIFPPS
In the case of B6, the maximal inhibition of Factor VIII activity, chromogenic assay in assay [1] lay in the range of 75 to 85%.

These data come from US20060115474A1 (LIFE SCIENCES RESEARCH PARTNERS VZW, published 2006).
